Data reported in patent US10087225B2, “Formulation of MK2 inhibitor peptides” (MOERAE MATRIX, INC., priority 2015, dated 2018).

Experiments:
Test in all cases: Kinase Profiling Assay
Type in all cases: biochemical
Details in all cases: for % activity: 100 μM
EphA7(h) = EphA7(h) (Homo sapiens, UniProt Q15375)
Bmx(h) = biological target: T1, Bmx(h) (Homo sapiens, UniProt P51813)
T1 sequence (P51813 1-675): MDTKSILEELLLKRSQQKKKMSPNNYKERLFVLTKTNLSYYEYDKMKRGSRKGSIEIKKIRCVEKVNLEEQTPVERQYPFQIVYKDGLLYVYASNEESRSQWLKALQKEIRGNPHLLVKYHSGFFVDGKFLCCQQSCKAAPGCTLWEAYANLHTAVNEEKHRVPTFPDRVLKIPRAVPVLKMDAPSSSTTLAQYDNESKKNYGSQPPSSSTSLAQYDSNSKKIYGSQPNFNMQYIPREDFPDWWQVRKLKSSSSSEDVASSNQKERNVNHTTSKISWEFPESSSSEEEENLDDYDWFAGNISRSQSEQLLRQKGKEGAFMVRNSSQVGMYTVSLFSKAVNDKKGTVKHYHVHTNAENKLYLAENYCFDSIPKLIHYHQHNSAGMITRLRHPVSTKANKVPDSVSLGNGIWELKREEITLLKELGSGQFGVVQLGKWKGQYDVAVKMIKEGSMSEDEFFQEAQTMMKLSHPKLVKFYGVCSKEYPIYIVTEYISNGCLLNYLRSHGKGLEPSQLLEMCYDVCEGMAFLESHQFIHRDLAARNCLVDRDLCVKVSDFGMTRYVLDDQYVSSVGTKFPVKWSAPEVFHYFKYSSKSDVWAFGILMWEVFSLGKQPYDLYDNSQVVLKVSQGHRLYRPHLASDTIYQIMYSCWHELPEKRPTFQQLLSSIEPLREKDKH

Mer(h) = biological target: T2, Mer(h) (Homo sapiens, UniProt Q12866)
T2 sequence (Q12866 21-999): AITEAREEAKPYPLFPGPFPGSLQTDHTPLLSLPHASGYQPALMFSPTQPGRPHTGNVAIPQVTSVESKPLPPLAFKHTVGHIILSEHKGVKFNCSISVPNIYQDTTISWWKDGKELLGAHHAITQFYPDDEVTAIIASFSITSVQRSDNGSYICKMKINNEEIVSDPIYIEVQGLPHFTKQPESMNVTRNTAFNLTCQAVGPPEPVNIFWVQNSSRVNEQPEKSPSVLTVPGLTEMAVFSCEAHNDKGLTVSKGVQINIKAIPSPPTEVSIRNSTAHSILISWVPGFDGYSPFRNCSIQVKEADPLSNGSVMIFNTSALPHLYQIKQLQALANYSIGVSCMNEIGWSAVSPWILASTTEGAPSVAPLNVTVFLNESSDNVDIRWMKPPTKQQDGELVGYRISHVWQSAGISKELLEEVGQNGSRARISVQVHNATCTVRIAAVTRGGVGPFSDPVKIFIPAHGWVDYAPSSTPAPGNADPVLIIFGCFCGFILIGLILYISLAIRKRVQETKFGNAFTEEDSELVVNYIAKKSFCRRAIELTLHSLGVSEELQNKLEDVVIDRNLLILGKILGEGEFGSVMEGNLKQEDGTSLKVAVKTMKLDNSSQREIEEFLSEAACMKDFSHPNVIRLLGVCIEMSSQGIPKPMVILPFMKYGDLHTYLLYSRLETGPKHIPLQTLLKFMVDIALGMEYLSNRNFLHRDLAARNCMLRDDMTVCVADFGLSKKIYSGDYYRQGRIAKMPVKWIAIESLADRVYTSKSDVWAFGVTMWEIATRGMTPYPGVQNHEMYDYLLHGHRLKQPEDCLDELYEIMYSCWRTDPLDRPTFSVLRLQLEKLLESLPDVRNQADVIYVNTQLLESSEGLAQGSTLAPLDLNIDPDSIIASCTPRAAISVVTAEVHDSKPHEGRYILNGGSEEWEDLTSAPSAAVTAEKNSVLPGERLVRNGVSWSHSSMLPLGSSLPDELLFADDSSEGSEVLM

PKG1β(h) = biological target: T3, PKG1β(h) (Homo sapiens, UniProt Q13976)
T3 sequence (Q13976 1-686 isoform Q13976-2): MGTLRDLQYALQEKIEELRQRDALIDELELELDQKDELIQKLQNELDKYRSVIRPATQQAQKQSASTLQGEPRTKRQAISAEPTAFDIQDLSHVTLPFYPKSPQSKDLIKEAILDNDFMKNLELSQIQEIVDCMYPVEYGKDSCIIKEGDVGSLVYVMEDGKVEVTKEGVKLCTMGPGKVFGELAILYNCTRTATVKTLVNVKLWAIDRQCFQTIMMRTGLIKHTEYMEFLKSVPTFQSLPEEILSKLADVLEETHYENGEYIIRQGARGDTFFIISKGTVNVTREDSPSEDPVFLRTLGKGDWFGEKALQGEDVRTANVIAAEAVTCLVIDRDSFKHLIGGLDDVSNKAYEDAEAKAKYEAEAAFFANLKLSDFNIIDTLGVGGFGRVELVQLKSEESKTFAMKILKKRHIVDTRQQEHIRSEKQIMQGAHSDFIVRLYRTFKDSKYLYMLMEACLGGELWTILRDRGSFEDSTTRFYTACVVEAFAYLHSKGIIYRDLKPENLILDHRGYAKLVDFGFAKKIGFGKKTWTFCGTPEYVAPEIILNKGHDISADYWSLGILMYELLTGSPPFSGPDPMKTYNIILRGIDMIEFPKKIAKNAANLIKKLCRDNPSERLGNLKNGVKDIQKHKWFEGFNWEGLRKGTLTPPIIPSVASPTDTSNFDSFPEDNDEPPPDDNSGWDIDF

NEK3(h) = biological target: T4, NEK3(h) (Homo sapiens, UniProt P51956)
T4 sequence (P51956 1-506): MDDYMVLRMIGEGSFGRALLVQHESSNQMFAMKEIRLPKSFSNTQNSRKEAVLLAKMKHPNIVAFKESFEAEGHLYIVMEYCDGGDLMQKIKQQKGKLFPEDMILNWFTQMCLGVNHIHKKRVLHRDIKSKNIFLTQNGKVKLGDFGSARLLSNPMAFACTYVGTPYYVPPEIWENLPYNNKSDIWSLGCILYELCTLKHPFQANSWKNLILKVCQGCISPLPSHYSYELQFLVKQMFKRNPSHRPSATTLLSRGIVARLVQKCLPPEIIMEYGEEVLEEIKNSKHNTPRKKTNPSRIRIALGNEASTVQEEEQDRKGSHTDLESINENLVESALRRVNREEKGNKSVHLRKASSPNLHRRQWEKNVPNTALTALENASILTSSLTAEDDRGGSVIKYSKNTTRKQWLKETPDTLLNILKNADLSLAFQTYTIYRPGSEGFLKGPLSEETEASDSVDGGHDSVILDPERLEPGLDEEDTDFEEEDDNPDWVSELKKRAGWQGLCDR

PAK4(h) = PAK4(h) (Homo sapiens, UniProt O96013)
PAK4(h), sequence (O96013 whole entry): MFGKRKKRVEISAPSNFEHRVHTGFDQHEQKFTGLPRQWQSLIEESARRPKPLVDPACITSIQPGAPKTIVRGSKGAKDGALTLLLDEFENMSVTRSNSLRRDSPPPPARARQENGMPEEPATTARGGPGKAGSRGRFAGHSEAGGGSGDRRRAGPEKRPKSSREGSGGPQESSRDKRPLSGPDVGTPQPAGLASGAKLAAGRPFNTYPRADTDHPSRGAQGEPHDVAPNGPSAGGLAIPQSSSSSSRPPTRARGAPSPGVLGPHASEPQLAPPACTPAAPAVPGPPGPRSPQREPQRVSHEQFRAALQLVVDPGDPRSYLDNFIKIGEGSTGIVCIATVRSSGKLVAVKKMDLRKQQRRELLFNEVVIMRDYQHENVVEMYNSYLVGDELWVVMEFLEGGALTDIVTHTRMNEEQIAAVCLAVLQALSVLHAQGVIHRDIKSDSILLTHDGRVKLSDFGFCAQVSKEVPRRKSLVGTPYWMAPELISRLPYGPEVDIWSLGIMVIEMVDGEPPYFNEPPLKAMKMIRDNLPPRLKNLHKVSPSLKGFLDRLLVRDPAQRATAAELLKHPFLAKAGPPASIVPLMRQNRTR

EphA7(h), sequence (Q15375 28-998): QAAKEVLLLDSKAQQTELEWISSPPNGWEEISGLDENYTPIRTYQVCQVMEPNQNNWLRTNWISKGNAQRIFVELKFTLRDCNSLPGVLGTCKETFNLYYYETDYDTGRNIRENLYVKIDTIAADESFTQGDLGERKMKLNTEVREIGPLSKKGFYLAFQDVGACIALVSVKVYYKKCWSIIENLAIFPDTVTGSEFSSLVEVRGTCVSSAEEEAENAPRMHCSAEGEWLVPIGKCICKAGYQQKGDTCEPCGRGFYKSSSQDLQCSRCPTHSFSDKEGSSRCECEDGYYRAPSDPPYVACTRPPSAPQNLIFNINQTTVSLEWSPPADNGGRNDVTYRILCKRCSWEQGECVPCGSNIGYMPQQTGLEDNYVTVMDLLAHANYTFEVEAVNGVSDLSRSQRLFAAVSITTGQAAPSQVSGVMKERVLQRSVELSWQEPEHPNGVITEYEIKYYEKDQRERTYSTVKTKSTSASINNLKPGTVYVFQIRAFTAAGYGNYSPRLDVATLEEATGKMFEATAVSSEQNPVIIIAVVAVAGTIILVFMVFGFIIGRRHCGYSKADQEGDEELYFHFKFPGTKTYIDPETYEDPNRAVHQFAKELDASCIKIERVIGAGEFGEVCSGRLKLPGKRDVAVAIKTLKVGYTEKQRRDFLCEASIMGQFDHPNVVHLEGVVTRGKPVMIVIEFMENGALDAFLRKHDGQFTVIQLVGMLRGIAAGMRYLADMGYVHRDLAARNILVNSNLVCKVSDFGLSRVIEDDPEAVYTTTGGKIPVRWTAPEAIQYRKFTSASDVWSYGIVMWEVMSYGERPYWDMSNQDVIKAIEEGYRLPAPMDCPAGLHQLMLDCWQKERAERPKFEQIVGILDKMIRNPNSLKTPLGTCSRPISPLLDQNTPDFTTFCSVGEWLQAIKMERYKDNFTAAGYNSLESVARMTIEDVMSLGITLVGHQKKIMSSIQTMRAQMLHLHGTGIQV

| Substance | activity at 100 µM (EphA7(h)) [%] | activity at 100 µM (Bmx(h)) [%] | activity at 100 µM (Mer(h)) [%] | activity at 100 µM (PKG1β(h)) [%] | activity at 100 µM (NEK3(h)) [%] | activity at 100 µM (PAK4(h)) [%] | % activity (EphA7(h)) [%] | % activity (Bmx(h)) [%] | % activity (Mer(h)) [%] | % activity (PKG1β(h)) [%] | % activity (NEK3(h)) [%] | % activity (PAK4(h)) [%] |
| --- | --- | --- | --- | --- | --- | --- | --- | --- | --- | --- | --- | --- |
| H-YARAAARQARAKALARQLGVAA-OH [MMI-0100] | 193 | 62 | 47 | 71 | 100 | 92 | – | – | – | – | – | – |
| HRRIKAWLKKIKALARQLGVAA (Mammalian) [MMI-0500] | – | – | – | – | – | – | 189 | 45 | 17 | 24 | 20 | 86 |
| YARAAARQARAKALNRQLGVA (Mammalian) [MMI-0200] | – | – | – | – | – | – | 220 | 76 | 90 | 57 | 100 | 98 |
